According to patent US20250163119A1, “COMPOUNDS FOR THE TREATMENT OF DIABETES OR OBESITY” (Eli Lilly and Company, priority 2023, published 2025):
*1 amine or outer side, *2 acyl side, *3 side chain or, on linkers, in order; H or OH if unused. Where no end group is shown, it is not given here. Side-chain parts run from the residue outwards. [ ]: non-standard residue; d: D form. The star is where a group is joined. C20 diacid = O=C(O)CCCCCCCCCCCCCCCCCCC(=O)*; γGlu = O=C(O)[C@H](CCC(=O)[*:2])N[*:1]; εLys = N[C@@H](CCCCN[*:1])C(=O)[*:2]; NMeI = CC[C@H](C)[C@H](NC)C(=O)O; αMeL = CC(C)C[C@](C)(N)C(=O)O; AEEA = NCCOCCOCC(=O)O; Aib = CC(C)(N)C(=O)O

T1: human corticotropin-releasing hormone receptor 1 (CRHR1) (human, UniProt P34998 24-415)
T1 sequence (looked up): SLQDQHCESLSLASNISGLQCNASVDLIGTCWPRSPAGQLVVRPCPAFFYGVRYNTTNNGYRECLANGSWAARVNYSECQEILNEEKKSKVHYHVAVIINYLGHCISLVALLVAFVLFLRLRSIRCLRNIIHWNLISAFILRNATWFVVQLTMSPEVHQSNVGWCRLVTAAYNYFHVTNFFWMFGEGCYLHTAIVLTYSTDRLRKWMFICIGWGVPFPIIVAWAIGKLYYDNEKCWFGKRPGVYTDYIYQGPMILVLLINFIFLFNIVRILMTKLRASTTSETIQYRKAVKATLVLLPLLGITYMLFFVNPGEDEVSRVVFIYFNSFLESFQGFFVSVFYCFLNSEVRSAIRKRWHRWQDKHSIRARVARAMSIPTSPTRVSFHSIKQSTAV


Legend:
Assay in all cases: cell-based or functional assay
[1] = molecular target: T1, human corticotropin-releasing hormone …
[2] = molecular target: rat CRHR2 (endogenous on A7r5 cells) (rat, UniProt P47866 20-411)
Sequence of rat CRHR2 (endogenous on A7r5 cells) (P47866 20-411): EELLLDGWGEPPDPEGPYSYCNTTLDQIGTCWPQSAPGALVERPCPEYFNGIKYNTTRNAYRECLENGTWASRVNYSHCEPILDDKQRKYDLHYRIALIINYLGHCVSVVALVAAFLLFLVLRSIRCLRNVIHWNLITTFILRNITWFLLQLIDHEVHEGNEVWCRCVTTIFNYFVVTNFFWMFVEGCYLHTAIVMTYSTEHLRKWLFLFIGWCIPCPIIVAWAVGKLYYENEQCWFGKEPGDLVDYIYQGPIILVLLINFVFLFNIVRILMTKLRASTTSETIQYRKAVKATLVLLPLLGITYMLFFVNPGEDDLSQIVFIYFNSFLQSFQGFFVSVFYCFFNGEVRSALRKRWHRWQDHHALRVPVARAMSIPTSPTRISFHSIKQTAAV

[3] = molecular target: T1, human corticotropin-releasing hormone …; remark: listed apart in the source

Row | Binder | hCRHR1 cAMP EC50 [1] [nM] | A7r5 cAMP EC50 [2] [nM] | Y79 cAMP EC50 [3] [nM]
1 | Ac-PPPIVTS[αMeL]DVPT[Aib][αMeL]LQKLLEQERAEKARQQAK([γGlu-AEEA-εLys-C20 diacid])EAAEILAQV-NH2 [polypeptide comprising SEQ ID NO:48] | > 10000 | 1.16 | 4500
2 | Ac-PPPIVTS[αMeL]D[dV]PT[Aib][αMeL]LQK[Aib]LEQERAEKARQQAK([γGlu-AEEA-εLys-C20 diacid])ENTEILAQV-NH2 [polypeptide comprising SEQ ID NO:46] | > 10000 | 0.313 | 4000
3 | Ac-PPPIVTS[αMeL]D[dV]PT[Aib][αMeL]LQKLLEQERAEKARQQAK([γGlu-AEEA-εLys-C20 diacid])EAAEILAQV-NH2 [polypeptide comprising SEQ ID NO:47] | 2300 | 1.06 | 720
4 | [NMeI]VTSLDVPIG[αMeL]LQKLIEQEKQEKEKQQAKENTEILAQV-NH2 (not fully specified (residue 29)) [polypeptide comprising SEQ ID NO:49] | > 10000 | 0.137 | > 10000
